Measured values reported in US20140065150A1 (AGGAMIN PHARMACEUTICALS, published 2014).

Target: T1, human sFlt-1 protein (Ig-like domains 1-3), amino acids Ser27 to Ile328, with carboxy-terminal poly-histidine … (human, UniProt P17948 27-328)
T1 construct: range 27-328; also called sFlt-1 (domains 1-3); Recombinant sFlt1 (d1-d3)
Experiment: SPR (FIG. 2 legend: ForteBio Octet), antibody immobilized, sFlt-1 (domains 1-3) in the liquid phase; apparent Kd
Method: The apparent Kd of binding between purified monoclonal antibodies and sFlt1 was measured by surface plasmon resonance (SPR). (FIG. 2B). Antibodies were immobilized on the solid phase and sFlt-1 (domains 1-3) was in the liquid phase. There was no direct correlation between antibody affinity (as measured in a kinetic binding experiment) (FIG. 2B) and effectiveness (FIG. 2A) in the device. There was also no direct correlation with on-rates or off-rates and device effectiveness.

T1 sequence (P17948 27-328): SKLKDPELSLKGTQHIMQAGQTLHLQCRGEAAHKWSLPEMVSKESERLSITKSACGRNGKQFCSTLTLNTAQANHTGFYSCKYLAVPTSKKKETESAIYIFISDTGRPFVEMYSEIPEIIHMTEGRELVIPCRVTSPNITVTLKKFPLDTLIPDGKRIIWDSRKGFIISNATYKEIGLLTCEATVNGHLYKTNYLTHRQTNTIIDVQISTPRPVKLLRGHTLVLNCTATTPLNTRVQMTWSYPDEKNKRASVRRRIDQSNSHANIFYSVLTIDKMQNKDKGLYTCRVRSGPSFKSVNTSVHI

B1: antibody 101 (antibody, V domains shown)
VH: QVQLKQSGPGLVQPSQSLSLTCTVSGFSLTNYGVHWIRQSPGKGLEWLGVIWSGGSIDYNAVFTSRLTITKDHSKSQVFFKVNSLESNDTAIYYCARNVGYRYDDGYVMDYWGQGTSVIVSS
VL: SIVMTQTPKFLLVSAGDRVTITCKASQSVSIDVAWYQQKPGQSPKLLIYHASNRYTGVPDRFIGSRYGTDFTFTISTVQAEDLAVYFCQQNYDSPFTFGSGTKLELKR
notes: Mouse monoclonal antibody raised against human sFlt-1 (Ig-like domains 1-3)
  Kd: 1.44 nM
